Measured values taken from patent publication US20150087812A1 (Janssen / Centocor, published 2015).

B1: Fab F78 (VH H73, VL L73) (Fab, V domains shown)
VH: QVQLVQSGAEVKKPGSSVKVSCKASGGTFSSYAISWVRQAPGQGLEWMGGIIPIFGTANYAQKFQGRVTITADESTSTAYMELSSLRSEDTAVYYCARGTFTYDFLDYWGQGTLVTVSS
VL: EIVLTQSPGTLSLSPGERATLSCRASQSVSSSYLAWYQQKPGQAPRLLIYGASSRATGIPDRFSGSGSGTDFTLTISRLEPEDFAVYYCQQSSRFPWTFGQGTKVEIK
notes: Soluble Fab-His
B2: Fab F90 (VH H83, VL L83) (Fab, V domains shown)
VH: QVQLVQSGAEVKKPGSSVKVSCKASGGTFSSYAISWVRQAPGQGLEWMGGIIPIFGTANYAQKFQGRVTITADESTSTAYMELSSLRSEDTAVYYCARGEANEVYPGLDYWGQGTLVTVSS
VL: EIVLTQSPGTLSLSPGERATLSCRASQSVSKSALAWYQQKPGQAPRLLIYNASSRATGIPDRFSGSGSGTDFTLTISRLEPEDFAVYYCQQSNKDPLTFGQGTKVEIK
notes: Soluble Fab-His
B3: Fab F130 (VH H129, VL L113) (Fab, V domains shown)
VH: QVQLVQSGAEVKKPGSSVKVSCKASGGTFSSYAISWVRQAPGQGLEWMGGIIPIFGTANYAQKFQGRVTITADESTSTAYMELSSLRSEDTAVYYCARDHGYAYYSAFDYWGQGTLVTVSS
VL: EIVLTQSPGTLSLSPGERATLSCRASQSVSSSYLAWYQQKPGQAPRLLIYGASSRATGIPDRFSGSGSGTDFTLTISRLEPEDFAVYYCQQSSRDPWTFGQGTKVEIK
notes: Soluble Fab-His
B4: Fab F135 (VH H138, VL L118) (Fab, V domains shown)
VH: QVQLVQSGAEVKKPGSSVKVSCKASGGTFSSYAISWVRQAPGQGLEWMGGIIPIFGTANYAQKFQGRVTITADESTSTAYMELSSLRSEDTAVYYCARDFLSQFSWLDYWGQGTLVTVSS
VL: EIVLTQSPGTLSLSPGERATLSCRASQSVSSSYLAWYQQKPGQAPRLLIYGASSRATGIPDRFSGSGSGTDFTLTISRLEPEDFAVYYCQQSSGFPLTFGQGTKVEIK
notes: Soluble Fab-His
B5: Fab F100 (VH H93, VL PH9L1) (Fab, V domains shown)
VH: QVQLVQSGAEVKKPGSSVKVSCKASGGTFSSYAISWVRQAPGQGLEWMGGIIPIFGNTNYAQKFQGRVTITADESTSTAYMELSSLRSEDTAVYYCARHYLPDATLDYWGQGTLVTVSS
VL: not shown
notes: Soluble Fab-His
B6: Fab F89 (VH H70, VL L82) (Fab, V domains shown)
VH: QVQLVQSGAEVKKPGSSVKVSCKASGGTFSSYAISWVRQAPGQGLEWMGGISPYFGNANYAQKFQGRVTITADESTSTAYMELSSLRSEDTAVYYCARYGDFGGNVFTEFDYWGQGTLVTVSS
VL: EIVLTQSPGTLSLSPGERATLSCRASQSVNNSDLAWYQQKPGQAPRLLIYTASSRATGIPDRFSGSGSGTDFTLTISRLEPEDFAVYYCQQATTVPLTFGQGTKVEIK
notes: Soluble Fab-His; converted to mAb B9
B7: Fab F85 (VH H58, VL L79) (Fab, V domains shown)
VH: QVQLVQSGAEVKKPGSSVKVSCKASGGTFSSYAISWVRQAPGQGLEWMGGIIPIFGTANYAQKFQGRVTITADESTSTAYMELSSLRSEDTAVYYCARDLYGIDIYYALDYWGQGTLVTVSS
VL: EIVLTQSPGTLSLSPGERATLSCRASQSVSSSYLAWYQQKPGQAPRLLIYGASSRATGIPDRFSGSGSGTDFTLTISRLEPEDFAVYYCQQSNTLPLTFGQGTKVEIK
notes: Soluble Fab-His
B8: Fab F72 (VH H65, VL PH9L1) (Fab, V domains shown)
VH: QVQLVQSGAEVKKPGSSVKVSCKASGGTFSSYAISWVRQAPGQGLEWMGGIIPIFGTANYAQKFQGRVTITADESTSTAYMELSSLRSEDTAVYYCARGDANSIYPLFDYWGQGTLVTVSS
VL: not shown
notes: Soluble Fab-His
B9: Fab F118 (VH H111, VL L104) (Fab, V domains shown)
VH: QVQLVQSGAEVKKPGSSVKVSCKASGGTFSSYGISWVRQAPGQGLEWMGGIIPIFGTANYAQKFQGRVTITADESTSTAYMELSSLRSEDTAVYYCARDDLPLGMLDYWGQGTLVTVSS
VL: EIVLTQSPGTLSLSPGERATLSCRASQSVSSSYLAWYQQKPGQAPRLLIYGASSRATGIPDRFSGSGSGTDFTLTISRLEPEDFAVYYCQQYTAFPLTFGQGTKVEIK
notes: Soluble Fab-His; converted to mAb B11
B10: Fab F128 (VH H127, VL L111) (Fab, V domains shown)
VH: QVQLVQSGAEVKKPGSSVKVSCKASGGTFSSYAISWVRQAPGQGLEWMGGIIPIFGNANYAQKFQGRVTITADESTSTAYMELSSLRSEDTAVYYCARGFVNFSRLDYWGQGTLVTVSS
VL: EIVLTQSPGTLSLSPGERATLSCRASQSVSSSYLAWYQQKPGQAPRLLIYGASSRATGIPDRFSGSGSGTDFTLTISRLEPEDFAVYYCQQDSAFPWTFGQGTKVEIK
notes: Soluble Fab-His
B11: Fab F122 (VH H119, VL L108) (Fab, V domains shown)
VH: QVQLVQSGAEVKKPGSSVKVSCKASGGTFSSYAISWVRQAPGQGLEWMGGIIPIFGTANYAQKFQGRVTITADESTSTAYMELSSLRSEDTAVYYCARDGVTTYDYFDYWGQGTLVTVSS
VL: EIVLTQSPGTLSLSPGERATLSCRASQSVSSSYLAWYQQKPGQAPRLLIYGASSRATGIPDRFSGSGSGTDFTLTISRLEPEDFAVYYCQQSSRYPWTFGQGTKVEIK
notes: Soluble Fab-His
B12: Fab F93 (VH H86, VL L79) (Fab, V domains shown)
VH: QVQLVQSGAEVKKPGSSVKVSCKASGGTFSSYAISWVRQAPGQGLEWMGGIIPIFGTANYAQKFQGRVTITADESTSTAYMELSSLRSEDTAVYYCARDTFWFTVFDYWGQGTLVTVSS
VL: EIVLTQSPGTLSLSPGERATLSCRASQSVSSSYLAWYQQKPGQAPRLLIYGASSRATGIPDRFSGSGSGTDFTLTISRLEPEDFAVYYCQQSNTLPLTFGQGTKVEIK
notes: Soluble Fab-His
B13: Fab F69 (VH H63, VL L63) (Fab, V domains shown)
VH: QVQLVQSGAEVKKPGSSVKVSCKASGGTFSSYAISWVRQAPGQGLEWMGGIIPIFGTANYAQKFQGRVTITADESTSTAYMELSSLRSEDTAVYYCARDDDVNSLASYPLDYWGQGTLVTVSS
VL: EIVLTQSPATLSLSPGERATLSCRASQSVSKALAWYQQKPGQAPRLLIYYASNRATGIPARFSGSGSGTDFTLTISSLEPEDFAVYYCQQYKNAPRTFGQGTKVEIK
notes: Soluble Fab-His
B14: Fab F40 (VH H32, VL L42) (Fab, V domains shown)
VH: EVQLVQSGGGLVQPGGSLRLSCAASGFTFSSYAMSWVRQAPGKGLEWVSVINSDGSSIYYADSVKGRFTISRDNSKNTLYLQMNSLRAEDTAVYYCAKLEAIDYAWGFDYWGQGTLVTVSS
VL: EIVLTQSPATLSLSPGERATLSCRASQSVADSLAWYQQKPGQAPRLLIYNASNRATGIPARFSGSGSGTDFTLTISSLEPEDFAVYYCQQSFHWPLTFGQGTKVEIK
notes: Soluble Fab-His; converted to mAb B16; the Fab's H32 may differ in FR1
B15: Fab F74 (VH H68, VL L68) (Fab, V domains shown)
VH: QVQLVQSGAEVKKPGSSVKVSCKASGGTFSSYAISWVRQAPGQGLEWMGGIIPIFGTANYAQKFQGRVTITADESTSTAYMELSSLRSEDTAVYYCARDGDVNSVYSSGLDYWGQGTLVTVSS
VL: EIVLTQSPATLSLSPGERATLSCRASQSVNKFLAWYQQKPGQAPRLLIYFASNRATGIPARFSGSGSGTDFTLTISSLEPEDFAVYYCQQYNHAPFTFGQGTKVEIK
notes: Soluble Fab-His
B16: Fab F116 (VH H108, VL L100) (Fab, V domains shown)
VH: QVQLVQSGAEVKKPGSSVKVSCKASGGTFSSYAISWVRQAPGQGLEWMGGIIPIFGTANYAQKFQGRVTITADESTSTAYMELSSLRSEDTAVYYCARSDLNNVSTVLDYWGQGTLVTVSS
VL: DIQMTQSPSSLSASVGDRVTITCRASQSIGKVLNWYQQKPGKAPKLLIYGASSLQSGVPSRFSGSGSGTDFTLTISSLQPEDFATYYCQQPISTPLTFGQGTKVEIK
notes: Soluble Fab-His
B17: Fab F67 (VH H60, VL L61) (Fab, V domains shown)
VH: QVQLVQSGAEVKKPGSSVKVSCKASGGTFSSYAISWVRQAPGQGLEWMGGIIPIFGTANYAQKFQGRVTITADESTSTAYMELSSLRSEDTAVYYCARIARYARGYMHTFDYWGQGTLVTVSS
VL: DIQMTQSPSSLSASVGDRVTITCRASQSISSYLNWYQQKPGKAPKLLIYAASSLQSGVPSRFSGSGSGTDFTLTISSLQPEDFATYYCQQHLSIPITFGQGTKVEIK
notes: Soluble Fab-His; converted to mAb B10
B18: Fab F117 (VH H110, VL L103) (Fab, V domains shown)
VH: QVQLVQSGAEVKKPGSSVKVSCKASGGTFSSYAISWVRQAPGQGLEWMGGIIPIFGTANYAQKFQGRVTITADESTSTAYMELSSLRSEDTAVYYCARADANQLSGYLDYWGQGTLVTVSS
VL: DIQMTQSPSSLSASVGDRVTITCRASQSIGRSLNWYQQKPGKAPKLLIYAASSLQSGVPSRFSGSGSGTDFTLTISSLQPEDFATYYCQQPFDYPFTFGQGTKVEIK
notes: Soluble Fab-His

What was measured:
[1] = molecular target: T1, recombinant human ATX beta isoform with N-terminal purification tag (human, UniProt Q13822 49-863); test: Fab-His ELISA
Method: (§1) Fabs were captured on black MaxiSorp plates (Nunc, Cat. No. 437111) coated with 1 μg/ml sheep anti-human Fd (CH1) antibody (The Binding Site, Cat. No. PC075). Plates were washed and biotinylated human ATX was added to the captured Fabs at 5 nM. Incubation was carried out for 1 hour at room temperature with gentle shaking. Plates were washed, SA-HRP (Invitrogen, Cat. No. 43-4323) was added and chemiluminescent detection carried out.
(§2) Clones with binding above background were sequenced and unique clones identified. […] These clones were identified with binding signal to human ATX at least 6-fold above the background. Table 3 lists the identifier for VH and VL (Peptide ID) and the combination of both (Fab ID) sorted by the Fab ELISA binding data.

[2] = molecular target: T1, recombinant human ATX beta isoform with …; test: ELISA, Fab-His captured by anti-Fd, 5 nM biotinylated human ATX beta
Method: as §1, §2

Binder	fold above background [1]	Fab Binding [2]
B1	≥ 6 fold	1.9e+06 relative chemiluminescence units
B2	≥ 6 fold	1.7e+06 relative chemiluminescence units
B3	≥ 6 fold	2.2e+06 relative chemiluminescence units
B4	≥ 6 fold	2e+06 relative chemiluminescence units
B5	≥ 6 fold	1.9e+06 relative chemiluminescence units
B6	≥ 6 fold	5.7e+06 relative chemiluminescence units
B7	≥ 6 fold	1.7e+06 relative chemiluminescence units
B8	≥ 6 fold	1.6e+06 relative chemiluminescence units
B9	≥ 6 fold	2.6e+06 relative chemiluminescence units
B10	≥ 6 fold	1.8e+06 relative chemiluminescence units
B11	≥ 6 fold	1.9e+06 relative chemiluminescence units
B12	≥ 6 fold	1.6e+06 relative chemiluminescence units
B13	≥ 6 fold	2e+06 relative chemiluminescence units
B14	≥ 6 fold	8.1e+06 relative chemiluminescence units
B15	≥ 6 fold	1.7e+06 relative chemiluminescence units
B16	≥ 6 fold	1.9e+06 relative chemiluminescence units
B17	≥ 6 fold	8.8e+06 relative chemiluminescence units
B18	≥ 6 fold	1.8e+06 relative chemiluminescence units
